Experimental data published in patent US20260146073A1 (published 2026).

T1: WT p16INK4a (CDKN2A) peptide on HLA-A*02:01 (human)
T1 peptide: LPVDLAEEL

T2: WT p16INK4a (CDKN2A) peptide on HLA-A*02:01 (human)
T2 peptide: RLPVDLAEEL

T3: mutated CDKN2A, frameshift (p16INK4a -1 or +2 indels between M54 and W100); p14ARF -2 or +1 indels between G69 … (human)
T3 peptide: AVCPWTWLR

T4: mutated CDKN2A, frameshift (p16INK4a -1 or +2 indels between M54 and W100); p14ARF -2 or +1 indels between G69 … (human)
T4 peptide: AVCPWTWLR


How the values were obtained:
[1] = molecular target: T1, WT p16INK4a (CDKN2A) peptide on …; assay: cytokine release
[2] = molecular target: T2, WT p16INK4a (CDKN2A) peptide on …; assay: cytokine release
[3] = molecular target: T3, mutated CDKN2A, frameshift (p16INK4a -1 …); assay: multimer staining
[4] = molecular target: T3, mutated CDKN2A, frameshift (p16INK4a -1 …); assay: cytokine release
[5] = molecular target: T4, mutated CDKN2A, frameshift (p16INK4a -1 …); assay: multimer staining

Binder	binding result [1]	binding result [2]	also measured
3333 TCR-C (TCR, V domains shown) Valpha: QKEVEQNSGPLSVPEGAIASLNCTYSDRGSQSFFWYRQYSGKSPELIMSIYSNGDKEDGRFTAQLNKASQYVSLLIRDSQPSDSATYLCAVNRAREAAGNKLTFGGGTRVLVKP Vbeta: DIYQTPRYLVIGTGKKITLECSQTMGHDKMYWYQQDPGMELHLIHYSYGVNSTEKGDLSSESTVSRIRTEHFPLTLESARPSHTSQYLCASSRPGSEKLFFGSGTQLSVL			binding result [3]: recognises
3333 TCR-A (TCR, V domains shown) Valpha: QKEVEQNSGPLSVPEGAIASLNCTYSDRGSQSFFWYRQYSGKSPELIMSIYSNGDKEDGRFTAQLNKASQYVSLLIRDSQPSDSATYLCAVNTASGTYKYIFGTGTRLKVLA Vbeta: not shown			binding result [3]: recognises
1913 TCR-41BB (TCR, V domains shown) Valpha: ELKVEQNPLFLSMQEGKNYTIYCNYSTTSDRLYWYRQDPGKSLESLFVLLSNGAVKQEGRLMASLDTKARLSTLHITAAVHDLSATYFCAVDPTGANSKLTFGKGITLSVRP Vbeta: GVTQTPKHLITATGQRVTLRCSPRSGDLSVYWYQQSLDQGLQFLIQYYNGEERAKGNILERFSAQQFPDLHSELNLSSLELGDSALYFCASSVAISGEETQYFGPGTRLLVL			binding result [4]: recognises; binding result [5]: recognises
4286 TCR 10-4 (TCR, V domains shown) Valpha: QSVSQHNHHVILSEAASLELGCNYSYGGTVNLFWYVQYPGQHLQLLLKYFSGDPLVKGIKGFEAEFIKSKFSFNLRKPSVQWSDTAEYFCAVKDTGFQKLVFGTGTRLLVSP Vbeta: GAVVSQHPSWVICKSGTSVKIECRSLDFQATTMFWYRQFPKQSLMLMATSNEGSKATYEQGVEKDKFLINHASLTLSTLTVTSAHPEDSSFYICSARGGARSYEQYFGPGTRLTVT	no recognition	no recognition	
4286 TCR 10-1 (TCR, V domains shown) Valpha: QKEVEQNSGPLSVPEGAIASLNCTYSDRGSQSFFWYRQYSGKSPELIMFIYSNGDKEDGRFTAQLNKASQYVSLLIRDSQPSDSATYLCAVKSWVIFGKGTRLHILP Vbeta: GVTQSPTHLIKTRGQQVTLRCSPISGHKSVSWYQQVLGQGPQFIFQYYEKEERGRGNFPDRFSARQFPNYSSELNVNALLLGDSALYLCASSPSAQSSYGYTFGSGTRLTVV	no recognition	no recognition	

Continued, in another order:

binding result [1]	binding result [2]	Binder	also measured
no recognition	no recognition	4286 TCR 10-2 (TCR, V domains shown) Valpha: QKEVEQNSGPLSVPEGAIASLNCTYSDRGSQSFFWYRQYSGKSPELIMFIYSNGDKEDGRFTAQLNKASQYVSLLIRDSQPSDSATYLCAVPNSGYSTLTFGKGTMLLVSP Vbeta: GVTQSPTHLIKTRGQQVTLRCSPISGHKSVSWYQQVLGQGPQFIFQYYEKEERGRGNFPDRFSARQFPNYSSELNVNALLLGDSALYLCASRTGTVTNSYNEQFFGPGTRLTVL	
no recognition	no recognition	4286 TCR 10-3 (TCR, V domains shown) Valpha: QSVSQHNHHVILSEAASLELGCNYSYGGTVNLFWYVQYPGQHLQLLLKYFSGDPLVKGIKGFEAEFIKSKFSFNLRKPSVQWSDTAEYFCAVKDTGFQKLVFGTGTRLLVSP Vbeta: GAVVSQHPSWVICKSGTSVKIECRSLDFQATTMFWYRQFPKQSLMLMATSNEGSKATYEQGVEKDKFLINHASLTLSTLTVTSAHPEDSSFYICSARGGRNSFEQFFGPGTRLTVL	
